T1: recombinant human activated Factor VII (FVIIa) (human, UniProt P08709 61-212; P08709 213-466, ten glutamate residues of the Gla domain may be gamma-carboxylated)
T1 construct: chains tethered by a disulfide bond; also called Factor VIIa; rFVIIa
T1 sequence 1: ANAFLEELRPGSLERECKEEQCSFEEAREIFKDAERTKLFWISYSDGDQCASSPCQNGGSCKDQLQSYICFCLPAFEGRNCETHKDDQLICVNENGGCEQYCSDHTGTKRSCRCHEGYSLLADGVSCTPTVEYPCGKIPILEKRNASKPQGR
T1 sequence 2: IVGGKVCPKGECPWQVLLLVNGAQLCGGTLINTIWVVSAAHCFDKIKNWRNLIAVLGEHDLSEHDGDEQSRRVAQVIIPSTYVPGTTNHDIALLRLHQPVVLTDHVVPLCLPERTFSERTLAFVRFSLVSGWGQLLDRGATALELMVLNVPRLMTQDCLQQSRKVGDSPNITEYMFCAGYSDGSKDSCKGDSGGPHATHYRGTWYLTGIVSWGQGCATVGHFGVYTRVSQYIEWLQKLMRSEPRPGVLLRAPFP

B1: VH SEQ ID NO 602 / VL SEQ ID NO 366 (antibody, IgG4, V domains shown)
VH: QVQLQESGPGLVKPSQTLSLTCTVSGGSISSDSAWSWIRQPPGKGLEWIGYIQYSGSTNYNPSLKSRVTISVDTSKNQFSLKLSSVTAADTAVYYCARSVNYYGNSFAVGYWGQGTLVTVSS
VL: EIVLTQSPATLSLSPGERATLSCRASQGLSDYLAWYQQKPGEAPRLLIKYASQPATGIPARFSGSGSGTDFTLTISSLEPEDFAVYYCQNGHSFPLTFGQGTKLEIK
notes: humanized 11F2; IgG4 S228P/kappa
B2: VH SEQ ID NO 610 / VL SEQ ID NO 342 (antibody, IgG4, V domains shown)
VH: QVQLQESGPGLVKPSQTLSLTCTVSGGSITSDSAWSWIRQPPGKGLEWIGYIQYSGSTNYNPSLKSRVTISVDTSKNQFSLKLSSVTAADTAVYYCARSVNYYGNSFAVGYWGQGTLVTVSS
VL: EIVLTQSPATLSLSPGERATLSCRASQGISDYLHWYQQKPGQAPRLLIKYTSQPATGIPARFSGSGSGRDFTLTISSLEPEDFAVYYCQNGHSFPLTFGAGTKLELK
notes: as for B1
B3: VH SEQ ID NO 602 / VL SEQ ID NO 502 (antibody, IgG4, V domains shown)
VH: QVQLQESGPGLVKPSQTLSLTCTVSGGSISSDSAWSWIRQPPGKGLEWIGYIQYSGSTNYNPSLKSRVTISVDTSKNQFSLKLSSVTAADTAVYYCARSVNYYGNSFAVGYWGQGTLVTVSS
VL: EIVLTQSPATLSLSPGERATLSCRASQGVSDYLHWYQQKPGQAPRLLIKYTSQPATGIPARFSGSGSGTDFTLTISSLEPEDFAVYYCQNGHSFPLTFGQGTKLEIK
notes: as for B1
B4: VH SEQ ID NO 602 / VL SEQ ID NO 438 (antibody, IgG4, V domains shown)
VH: QVQLQESGPGLVKPSQTLSLTCTVSGGSISSDSAWSWIRQPPGKGLEWIGYIQYSGSTNYNPSLKSRVTISVDTSKNQFSLKLSSVTAADTAVYYCARSVNYYGNSFAVGYWGQGTLVTVSS
VL: EIVLTQSPATLSLSPGERATLSCRASQGVSDYLAWYQQKPGQAPRLLIKYASQPATGIPARFSGSGSGTDFTLTISSLEPEDVAVYYCQNGHSFPLTFGQGTKLEIK
notes: as for B1
B5: VH SEQ ID NO 602 / VL SEQ ID NO 486 (antibody, IgG4, V domains shown)
VH: QVQLQESGPGLVKPSQTLSLTCTVSGGSISSDSAWSWIRQPPGKGLEWIGYIQYSGSTNYNPSLKSRVTISVDTSKNQFSLKLSSVTAADTAVYYCARSVNYYGNSFAVGYWGQGTLVTVSS
VL: EIVLTQSPATLSLSPGERATLSCRASQGVSDYLHWYQQKPGQAPRLLIKYASQPATGIPARFSGSGSGTDFTLTISSLEPEDFGVYYCQNGHSFPLTFGQGTKLEIK
notes: as for B1
B6: VH SEQ ID NO 610 / VL SEQ ID NO 334 (antibody, IgG4, V domains shown)
VH: QVQLQESGPGLVKPSQTLSLTCTVSGGSITSDSAWSWIRQPPGKGLEWIGYIQYSGSTNYNPSLKSRVTISVDTSKNQFSLKLSSVTAADTAVYYCARSVNYYGNSFAVGYWGQGTLVTVSS
VL: EIVLTQSPATLSLSPGERATLSCRASQGISDYLHWYQQKPGQAPRLLIKYASQPATGIPARFSGSGSGTDFTLTISSLEPEDFAVYYCQNGHSFPLTFGQGTKLEIK
notes: as for B1
B7: VH SEQ ID NO 610 / VL SEQ ID NO 318 (antibody, IgG4, V domains shown)
VH: QVQLQESGPGLVKPSQTLSLTCTVSGGSITSDSAWSWIRQPPGKGLEWIGYIQYSGSTNYNPSLKSRVTISVDTSKNQFSLKLSSVTAADTAVYYCARSVNYYGNSFAVGYWGQGTLVTVSS
VL: EIVLTQSPATLSLSPGERATLSCRASQGISDYLHWYQQKPGEAPRLLIKYTSQPATGIPARFSGSGSGTDFTLTISSLEPEDFAVYYCQNGHSFPLTFGQGTKLEIK
notes: as for B1
B8: VH SEQ ID NO 602 / VL SEQ ID NO 382 (antibody, IgG4, V domains shown)
VH: QVQLQESGPGLVKPSQTLSLTCTVSGGSISSDSAWSWIRQPPGKGLEWIGYIQYSGSTNYNPSLKSRVTISVDTSKNQFSLKLSSVTAADTAVYYCARSVNYYGNSFAVGYWGQGTLVTVSS
VL: EIVLTQSPATLSLSPGERATLSCRASQGLSDYLHWYQQKPGEAPRLLIKYASQPATGIPARFSGSGSGTDFTLTISSLEPEDFAVYYCQNGHSFPLTFGQGTKLEIK
notes: as for B1
B9: VH SEQ ID NO 602 / VL SEQ ID NO 454 (antibody, IgG4, V domains shown)
VH: QVQLQESGPGLVKPSQTLSLTCTVSGGSISSDSAWSWIRQPPGKGLEWIGYIQYSGSTNYNPSLKSRVTISVDTSKNQFSLKLSSVTAADTAVYYCARSVNYYGNSFAVGYWGQGTLVTVSS
VL: EIVLTQSPATLSLSPGERATLSCRASQGVSDYLHWYQQKPGEAPRLLIKYASQPATGIPARFSGSGSGTDFTLTISSLEPEDFAVYYCQNGHSFPLTFGQGTKLEIK
notes: as for B1
B10: VH SEQ ID NO 602 / VL SEQ ID NO 478 (antibody, IgG4, V domains shown)
VH: QVQLQESGPGLVKPSQTLSLTCTVSGGSISSDSAWSWIRQPPGKGLEWIGYIQYSGSTNYNPSLKSRVTISVDTSKNQFSLKLSSVTAADTAVYYCARSVNYYGNSFAVGYWGQGTLVTVSS
VL: EIVLTQSPATLSLSPGERATLSCRASQGVSDYLHWYQQKPGQAPRLLIKYASQPATGIPARFSGSGSGTDFTLTISSLEPEDFAVYYCQQGHSFPLTFGQGTKLEIK
notes: as for B1
B11: VH SEQ ID NO 602 / VL SEQ ID NO 414 (antibody, IgG4, V domains shown)
VH: QVQLQESGPGLVKPSQTLSLTCTVSGGSISSDSAWSWIRQPPGKGLEWIGYIQYSGSTNYNPSLKSRVTISVDTSKNQFSLKLSSVTAADTAVYYCARSVNYYGNSFAVGYWGQGTLVTVSS
VL: EIVLTQSPATLSLSPGERATLSCRASQGVSDYLAWYQQKPGQAPRLLIKYASQPATGIPARFSGSGSGTDFTLTISSLEPEDFAVYYCQNGHSFPLTFGQGTKLEIK
notes: as for B1
B12: VH SEQ ID NO 610 / VL SEQ ID NO 310 (antibody, IgG4, V domains shown)
VH: QVQLQESGPGLVKPSQTLSLTCTVSGGSITSDSAWSWIRQPPGKGLEWIGYIQYSGSTNYNPSLKSRVTISVDTSKNQFSLKLSSVTAADTAVYYCARSVNYYGNSFAVGYWGQGTLVTVSS
VL: EIVLTQSPATLSLSPGERATLSCRASQGISDYLAWYQQKPGQAPRLLIKYASQPATGIPARFSGSGSGTDFTLTISSLEPEDFAVYYCQNGHSFPLTFGQGTKLEIK
notes: as for B1
B13: VH SEQ ID NO 610 / VL SEQ ID NO 350 (antibody, IgG4, V domains shown)
VH: QVQLQESGPGLVKPSQTLSLTCTVSGGSITSDSAWSWIRQPPGKGLEWIGYIQYSGSTNYNPSLKSRVTISVDTSKNQFSLKLSSVTAADTAVYYCARSVNYYGNSFAVGYWGQGTLVTVSS
VL: EIVLTQSPATLSLSPGERATLSCRASQGISDYLHWYQQKPGQAPRLLIKYTSQPATGIPARFSGSGSGTDFTLTISSLEPEDFAVYYCQNGHSFPLTFGAGTKLELK
notes: as for B1
B14: VH SEQ ID NO 602 / VL SEQ ID NO 462 (antibody, IgG4, V domains shown)
VH: QVQLQESGPGLVKPSQTLSLTCTVSGGSISSDSAWSWIRQPPGKGLEWIGYIQYSGSTNYNPSLKSRVTISVDTSKNQFSLKLSSVTAADTAVYYCARSVNYYGNSFAVGYWGQGTLVTVSS
VL: EIVLTQSPATLSLSPGERATLSCRASQGVSDYLHWYQQKPGQAPRLLIKYASQPATGIPARFSGSGSGTDFTLTISSLEPEDFAVYYCQNGHSFPLTFGAGTKLEIK
notes: as for B1
B15: VH SEQ ID NO 610 / VL SEQ ID NO 326 (antibody, IgG4, V domains shown)
VH: QVQLQESGPGLVKPSQTLSLTCTVSGGSITSDSAWSWIRQPPGKGLEWIGYIQYSGSTNYNPSLKSRVTISVDTSKNQFSLKLSSVTAADTAVYYCARSVNYYGNSFAVGYWGQGTLVTVSS
VL: EIVLTQSPATLSLSPGERATLSCRASQGISDYLHWYQQKPGEAPRLLIKYTSQPATGIPARFSGSGSGTDFTLTISSLEPEDFGVYYCQNGHSFPLTFGAGTKLELK
notes: as for B1
B16: VH SEQ ID NO 602 / VL SEQ ID NO 494 (antibody, IgG4, V domains shown)
VH: QVQLQESGPGLVKPSQTLSLTCTVSGGSISSDSAWSWIRQPPGKGLEWIGYIQYSGSTNYNPSLKSRVTISVDTSKNQFSLKLSSVTAADTAVYYCARSVNYYGNSFAVGYWGQGTLVTVSS
VL: EIVLTQSPATLSLSPGERATLSCRASQGVSDYLHWYQQKPGQAPRLLIKYASQPATGIPARFSGSGSGTDFTLTISSLEPEDVAVYYCQNGHSFPLTFGQGTKLEIK
notes: as for B1
B17: VH SEQ ID NO 602 / VL SEQ ID NO 390 (antibody, IgG4, V domains shown)
VH: QVQLQESGPGLVKPSQTLSLTCTVSGGSISSDSAWSWIRQPPGKGLEWIGYIQYSGSTNYNPSLKSRVTISVDTSKNQFSLKLSSVTAADTAVYYCARSVNYYGNSFAVGYWGQGTLVTVSS
VL: EIVLTQSPATLSLSPGERATLSCRASQGVSDYLAWYQQKPGEAPRLLIKYASQPATGIPARFSGSGSGTDFTLTISSLEPEDFAVYYCQNGHSFPLTFGQGTKLEIK
notes: as for B1
B18: VH SEQ ID NO 602 / VL SEQ ID NO 470 (antibody, IgG4, V domains shown)
VH: QVQLQESGPGLVKPSQTLSLTCTVSGGSISSDSAWSWIRQPPGKGLEWIGYIQYSGSTNYNPSLKSRVTISVDTSKNQFSLKLSSVTAADTAVYYCARSVNYYGNSFAVGYWGQGTLVTVSS
VL: EIVLTQSPATLSLSPGERATLSCRASQGVSDYLHWYQQKPGQAPRLLIKYASQPATGIPARFSGSGSGTDFTLTISSLEPEDFAVYYCQNGHSFPLTFGQGTKLEIK
notes: as for B1
B19: VH SEQ ID NO 602 / VL SEQ ID NO 430 (antibody, IgG4, V domains shown)
VH: QVQLQESGPGLVKPSQTLSLTCTVSGGSISSDSAWSWIRQPPGKGLEWIGYIQYSGSTNYNPSLKSRVTISVDTSKNQFSLKLSSVTAADTAVYYCARSVNYYGNSFAVGYWGQGTLVTVSS
VL: EIVLTQSPATLSLSPGERATLSCRASQGVSDYLAWYQQKPGQAPRLLIKYASQPATGIPARFSGSGSGTDFTLTISSLEPEDFGVYYCQNGHSFPLTFGQGTKLEIK
notes: as for B1
B20: VH SEQ ID NO 602 / VL SEQ ID NO 406 (antibody, IgG4, V domains shown)
VH: QVQLQESGPGLVKPSQTLSLTCTVSGGSISSDSAWSWIRQPPGKGLEWIGYIQYSGSTNYNPSLKSRVTISVDTSKNQFSLKLSSVTAADTAVYYCARSVNYYGNSFAVGYWGQGTLVTVSS
VL: EIVLTQSPATLSLSPGERATLSCRASQGVSDYLAWYQQKPGQAPRLLIKYASQPATGIPARFSGSGSGTDFTLTISSLEPEDFAVYYCQNGHSFPLTFGAGTKLEIK
notes: as for B1

The target in the test is T1, recombinant human activated Factor VII …. Description: BLI (Fortebio). (In BLI a coated tip is dipped into the sample, and binding shifts an interference pattern.)
The term Kd denotes the constant that tells how readily two partners part at equilibrium. B1: the Kd was found to be 51 nM. For the molecule B2, the Kd turned out to be 16 nM. With B3, the Kd was 14 nM. In the case of B4, the Kd is 600 nM. Turning to B5, the Kd is 15 nM. Next, B6: 13 nM; B7: 10 nM; B8: 14 nM.

For B9, the Kd is 13 nM. Consider B10, for which the Kd turned out to be 24 nM. Consider B11, for which the Kd turned out to be 310 nM. B12: the Kd was 80 nM. In the case of B13, the dissociation constant (Kd) is 11 nM. On to B14, for which the Kd was 15 nM. Regarding B15, the Kd was determined as 11 nM.

As to B16, the Kd was 14 nM.

As to B17, the Kd was 370 nM.

With B18, the Kd amounted to 13 nM. For B19, the Kd was determined as 590 nM. With B20, the Kd turned out to be 90 nM.

For the origin of these results see patent US20220064329A1 (Novo Nordisk, published 2022).
